Laboratory results as given in patent US10736933B2, “Peptide-induced NK cell activation” (priority 2015, dated 2020).

Key:
KIR2DS2 = target: T1, KIR2DS2 (Homo sapiens, UniProt P43631); experiment: KIR2DS2 tetramer (KIR2DS2-PE) staining of peptide-loaded L721.174 cells; format: binding; conditions: L721.174 cells incubated overnight at 26° C. with peptide, flow cytometry
T1 construct: made in house
Description: A. The KIR2DS2 protein was expressed with a biotinylation C-terminal tag. Following biotinylation with the BirA enzyme, the KIR2DS2 protein was incubated with streptavidin-phycoerythrin to form fluorescent KIR2DS2-tetramers (KIR2DS2-PE). L721.174 cells were then incubated with indicated peptides. Cells were then stained with KIR2DS2-PE and analysed by flow cytometry. Shown are histogram plots. The bold numbers represent the mean fluorescent staining intensity of the KIR2DS2-PE staining of the cells in the presence of peptide and the non-bold numbers the staining in the absence of peptide. B. Represents the mean and standard error fluorescent intensities of the experiment in “A” following replicate experiments.
A. L721.174 cells were incubated with indicated peptides. Cells were then stained with KIR2DS2-PE (see FIG. 4) and analysed by flow cytometry. Shown are histogram plots. The bold numbers represent the mean fluorescent staining intensity of the KIR2DS2-PE staining of the cells in the presence of peptide and the non-bold numbers the staining in the absence of peptide. B. Represents the mean and standard error fluorescent intensities of the experiment in “A” following replicate experiments.
FIG. 13—KIR2DS2 tetramer staining on 174 cells with and without peptides. Peptides tested include IVDLMCHATF (SEQ ID NO: 1); VIDAMCHATL (SEQ ID NO: 2); AANVMAASL (SEQ ID NO: 3); and FLSDVPVATL (SEQ ID NO: 4). A negative control peptide VAPWNSFAL (SEQ ID NO: 12) and positive control peptide LNPSVAATL (SEQ ID NO: 5) were included. The mean fluorescence intensity of the KIR2DS2 tetramer staining is shown in the right hand corner of the graph.
With reference to FIG. 4A, the KIR2DS2 protein was expressed as a recombinant protein with a biotinylation C-terminal tag. Following biotinylation with the BirA enzyme, the KIR2DS2 protein was incubated with streptavidin-phycoerythrin to form fluorescent KIR2DS2-tetramers (KIR2DS2-PE). 3×10^5 L721.174 cells were then incubated overnight at 26° C. with indicated peptides at a concentration of […]. Cells were then stained with KIR2DS2-PE and analysed by flow cytometry. Shown are histogram plots. The bold numbers represent the mean fluorescent staining intensity of the KIR2DS2-PE staining of the cells in the presence of peptide and the non-bold numbers the staining in the absence of peptide. With reference to FIG. 4B, panel B represents the mean and standard error fluorescent intensities of the experiment in “A” following replicate experiments.
With reference to FIG. 5A, 3×10^5 L721.174 cells were incubated overnight at 26° C. with indicated peptides at a concentration of 200 μM. Cells were then stained with KIR2DS2-PE (see FIG. 4) and analysed by flow cytometry. Shown are histogram plots. The bold numbers represent the mean fluorescent staining intensity of the KIR2DS2-PE staining of the cells in the presence of peptide and the non-bold numbers the staining in the absence of peptide. With reference to FIG. 5B, panel B represents the mean and standard error fluorescent intensities of the experiment in “A” following replicate experiments.
With reference to FIG. 13, the KIR2DS2 protein was expressed as a recombinant protein with a biotinylation C-terminal tag. Following biotinylation with the BirA enzyme, the KIR2DS2 protein was incubated with streptavidin-phycoerythrin to form fluorescent KIR2DS2-tetramers (KIR2DS2-PE). […] Cells were then stained with KIR2DS2-PE and analysed by flow cytometry. […]

[1] = tested on: KIR2DS2-positive NK cells; experiment: CD107a degranulation of NK cells from KIR2DS2-positive donors cultured with peptide-loaded L721.174 cells; format: cell-based
Description: A. cells were incubated in the presence or absence of peptides, and then cultured with NK cells from either a KIR2DS2-positive or KIR2DS2-negative donor. The level of CD107a (LAMP) expression was measured on NK cells positive for the CH-L antibody. This antibody binds to KIR2DS2, KIR2DL2 and KIR2DL3. B. Summary data from 5 KIR2DS2-positive and 6 KIR2DS2 • negative donors tested as per panel A of FIG. 2. To compare the different donors the data are normalized to 100% for the no peptide condition.
With reference to FIG. 2A, 3×10^5 L721.174 cells were incubated at 26° C. overnight in the presence or absence of peptides, and then cultured for four hours with NK cells from either a KIR2DS2-positive or KIR2DS2-negative donor. The level of CD107a (LAMP) expression was measured on NK cells positive for the CH-L antibody. This antibody binds to KIR2DS2, KIR2DL2 and KIR2DL3. […] With reference to FIG. 2B, summary data from 5 KIR2DS2-positive and 6 KIR2DS2 • negative donors were tested as per panel A of FIG. 2. To compare the different donors the data are normalized to 100% for the no peptide condition.

T1 sequence (P43631 22-245 limits assumed): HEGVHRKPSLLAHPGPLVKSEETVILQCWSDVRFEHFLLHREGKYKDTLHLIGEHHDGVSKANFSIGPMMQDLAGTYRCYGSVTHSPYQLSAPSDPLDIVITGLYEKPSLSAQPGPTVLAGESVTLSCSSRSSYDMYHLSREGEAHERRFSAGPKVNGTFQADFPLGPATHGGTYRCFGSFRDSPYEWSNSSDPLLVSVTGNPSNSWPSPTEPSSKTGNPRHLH

Row | Sequence | KIR2DS2-PE tetramer binding to HLA-C*0102 and peptide (KIR2DS2) | level of CD107a (LAMP) degranulation ([1]; KIR2DS2-positive donor, CH-L antibody positive NK cells, four hours, compared to no peptide) | level of CD107a (LAMP) degranulation ([1]; KIR2DS2-positive donors, in combination with VAPWNSFAL, compared to the VAPWNSFAL peptide alone)
1 | IVDLMCHATF [Dengue virus peptide] | KIR2DS2 BINDS |  | 
2 | LNPSVAATL [peptide recognized by KIR2DS2-positive NK cells] | KIR2DS2 binds | higher levels of degranulation | higher levels of degranulation
